Measurements: patent US20210063414A1, “METHODS FOR PREVENTING AND/OR TREATING BONE LOSS CONDITIONS BY MODULATING IRISIN” (Dana-Farber Cancer Institute, Inc., priority 2018, published 2021)

Legend:
[1] = target: T1, CD81 antigen (Cd81) of MLO-Y4 cells (mouse) (UniProt P35762); assay: DTSSP cross-linking on MLO-Y4 cells, his-tag pull-down, TMT mass spectrometry; adipsin (control) channel
T1 sequence (looked up): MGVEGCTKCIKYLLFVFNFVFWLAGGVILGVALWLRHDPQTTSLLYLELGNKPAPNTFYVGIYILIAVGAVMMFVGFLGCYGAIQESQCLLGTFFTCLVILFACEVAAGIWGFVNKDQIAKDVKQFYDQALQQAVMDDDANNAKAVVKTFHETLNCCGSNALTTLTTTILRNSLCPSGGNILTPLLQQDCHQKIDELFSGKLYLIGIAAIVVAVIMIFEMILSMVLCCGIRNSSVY

[2] = target: Fibronectin type III domain-containing protein 3B (Fndc3b) of MLO-Y4 cells (mouse) (UniProt Q6NWW9); assay: as above
[3] = target: T2, Integrin alpha-V (Itgav) of MLO-Y4 cells (mouse) (UniProt P43406); assay: as above
T2 sequence (looked up): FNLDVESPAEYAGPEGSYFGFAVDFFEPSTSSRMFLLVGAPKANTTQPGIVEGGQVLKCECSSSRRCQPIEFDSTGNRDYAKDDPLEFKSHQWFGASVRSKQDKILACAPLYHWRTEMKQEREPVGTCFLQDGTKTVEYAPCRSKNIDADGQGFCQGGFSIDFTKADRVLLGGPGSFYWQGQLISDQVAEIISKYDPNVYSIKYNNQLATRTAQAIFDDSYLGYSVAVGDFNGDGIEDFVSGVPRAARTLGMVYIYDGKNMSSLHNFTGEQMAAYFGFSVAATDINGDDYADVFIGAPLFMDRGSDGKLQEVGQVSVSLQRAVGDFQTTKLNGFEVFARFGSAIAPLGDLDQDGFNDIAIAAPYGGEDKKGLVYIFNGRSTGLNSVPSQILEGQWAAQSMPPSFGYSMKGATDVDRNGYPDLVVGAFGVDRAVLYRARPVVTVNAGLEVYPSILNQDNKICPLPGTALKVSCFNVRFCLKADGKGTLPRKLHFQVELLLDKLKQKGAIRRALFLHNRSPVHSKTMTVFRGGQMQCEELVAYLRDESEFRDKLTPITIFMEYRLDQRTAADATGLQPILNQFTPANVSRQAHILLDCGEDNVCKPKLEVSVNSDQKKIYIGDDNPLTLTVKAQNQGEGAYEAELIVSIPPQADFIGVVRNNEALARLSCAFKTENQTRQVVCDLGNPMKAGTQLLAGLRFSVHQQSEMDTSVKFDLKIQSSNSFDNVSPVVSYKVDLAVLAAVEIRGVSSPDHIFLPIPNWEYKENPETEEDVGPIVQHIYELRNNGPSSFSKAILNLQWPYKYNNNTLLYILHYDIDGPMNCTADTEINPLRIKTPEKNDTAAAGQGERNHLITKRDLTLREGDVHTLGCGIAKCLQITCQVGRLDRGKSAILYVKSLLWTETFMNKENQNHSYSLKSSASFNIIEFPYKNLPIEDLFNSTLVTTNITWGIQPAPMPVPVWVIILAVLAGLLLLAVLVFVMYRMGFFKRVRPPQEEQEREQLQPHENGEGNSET

[4] = target: Integrin beta-1 (Itgb1) of MLO-Y4 cells (mouse) (UniProt P09055); assay: as above
[5] = target: T3, Integrin beta-5 (Itgb5) of MLO-Y4 cells (mouse) (UniProt O70309); assay: as above
T3 sequence (looked up): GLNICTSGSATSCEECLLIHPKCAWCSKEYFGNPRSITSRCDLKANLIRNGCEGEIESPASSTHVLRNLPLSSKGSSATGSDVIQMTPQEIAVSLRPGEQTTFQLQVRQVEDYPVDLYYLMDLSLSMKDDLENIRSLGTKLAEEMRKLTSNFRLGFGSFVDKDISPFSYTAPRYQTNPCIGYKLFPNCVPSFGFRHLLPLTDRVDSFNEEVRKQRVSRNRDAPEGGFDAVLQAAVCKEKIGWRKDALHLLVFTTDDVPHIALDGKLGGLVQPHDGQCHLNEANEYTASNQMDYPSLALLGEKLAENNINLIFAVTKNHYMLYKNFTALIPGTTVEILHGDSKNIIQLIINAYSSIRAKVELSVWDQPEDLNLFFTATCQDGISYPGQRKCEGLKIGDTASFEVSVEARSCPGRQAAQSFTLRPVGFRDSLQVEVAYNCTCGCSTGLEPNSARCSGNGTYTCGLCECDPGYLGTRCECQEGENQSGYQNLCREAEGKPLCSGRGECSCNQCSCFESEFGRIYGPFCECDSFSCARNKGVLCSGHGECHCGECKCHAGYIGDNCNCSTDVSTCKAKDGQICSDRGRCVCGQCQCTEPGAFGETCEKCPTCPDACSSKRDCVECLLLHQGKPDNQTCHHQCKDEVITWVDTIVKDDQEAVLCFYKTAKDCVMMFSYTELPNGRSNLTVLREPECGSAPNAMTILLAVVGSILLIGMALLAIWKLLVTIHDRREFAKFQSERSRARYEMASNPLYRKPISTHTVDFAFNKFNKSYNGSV

[6] = target: T4, Membrane magnesium transporter 1 (Mmgt1) of MLO-Y4 cells (mouse) (UniProt Q8K273); assay: as above
T4 sequence (looked up): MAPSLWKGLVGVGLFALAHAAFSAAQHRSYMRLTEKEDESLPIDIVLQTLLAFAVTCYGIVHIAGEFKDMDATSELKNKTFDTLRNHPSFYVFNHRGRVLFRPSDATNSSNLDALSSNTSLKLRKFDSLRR

[7] = target: Protocadherin alpha-4 (Pcdha4) of MLO-Y4 cells (mouse) (UniProt O88689); assay: as above
[8] = target: T1, CD81 antigen (Cd81) of MLO-Y4 cells (mouse); assay: DTSSP cross-linking on MLO-Y4 cells, his-tag pull-down, TMT mass spectrometry; irisin channel
[9] = target: Fibronectin type III domain-containing protein 3B (Fndc3b) of MLO-Y4 cells (mouse) (UniProt Q6NWW9); assay: as above
[10] = target: Membrane magnesium transporter 1 (Mmgt1) of MLO-Y4 cells (mouse) (UniProt Q8K273); assay: as above
[11] = target: Protocadherin alpha-4 (Pcdha4) of MLO-Y4 cells (mouse) (UniProt O88689); assay: as above
[12] = target: T1, CD81 antigen (Cd81) of MLO-Y4 cells (mouse); assay: DTSSP cross-linking of his-tag ligand on MLO-Y4 cells, his-tag pull-down, TMT quantitative mass spectrometry; ratio to his-tag adipsin control
[13] = target: Fibronectin type III domain-containing protein 3B (Fndc3b) of MLO-Y4 cells (mouse) (UniProt Q6NWW9); assay: as above
[14] = target: Membrane magnesium transporter 1 (Mmgt1) of MLO-Y4 cells (mouse) (UniProt Q8K273); assay: as above
[15] = target: Protocadherin alpha-4 (Pcdha4) of MLO-Y4 cells (mouse) (UniProt O88689); assay: as above

Chain of Fibronectin type III domain-containing protein 3B (Fndc3b) of MLO-Y4 cells (mouse) (Q6NWW9 whole entry, the tested form may be a part): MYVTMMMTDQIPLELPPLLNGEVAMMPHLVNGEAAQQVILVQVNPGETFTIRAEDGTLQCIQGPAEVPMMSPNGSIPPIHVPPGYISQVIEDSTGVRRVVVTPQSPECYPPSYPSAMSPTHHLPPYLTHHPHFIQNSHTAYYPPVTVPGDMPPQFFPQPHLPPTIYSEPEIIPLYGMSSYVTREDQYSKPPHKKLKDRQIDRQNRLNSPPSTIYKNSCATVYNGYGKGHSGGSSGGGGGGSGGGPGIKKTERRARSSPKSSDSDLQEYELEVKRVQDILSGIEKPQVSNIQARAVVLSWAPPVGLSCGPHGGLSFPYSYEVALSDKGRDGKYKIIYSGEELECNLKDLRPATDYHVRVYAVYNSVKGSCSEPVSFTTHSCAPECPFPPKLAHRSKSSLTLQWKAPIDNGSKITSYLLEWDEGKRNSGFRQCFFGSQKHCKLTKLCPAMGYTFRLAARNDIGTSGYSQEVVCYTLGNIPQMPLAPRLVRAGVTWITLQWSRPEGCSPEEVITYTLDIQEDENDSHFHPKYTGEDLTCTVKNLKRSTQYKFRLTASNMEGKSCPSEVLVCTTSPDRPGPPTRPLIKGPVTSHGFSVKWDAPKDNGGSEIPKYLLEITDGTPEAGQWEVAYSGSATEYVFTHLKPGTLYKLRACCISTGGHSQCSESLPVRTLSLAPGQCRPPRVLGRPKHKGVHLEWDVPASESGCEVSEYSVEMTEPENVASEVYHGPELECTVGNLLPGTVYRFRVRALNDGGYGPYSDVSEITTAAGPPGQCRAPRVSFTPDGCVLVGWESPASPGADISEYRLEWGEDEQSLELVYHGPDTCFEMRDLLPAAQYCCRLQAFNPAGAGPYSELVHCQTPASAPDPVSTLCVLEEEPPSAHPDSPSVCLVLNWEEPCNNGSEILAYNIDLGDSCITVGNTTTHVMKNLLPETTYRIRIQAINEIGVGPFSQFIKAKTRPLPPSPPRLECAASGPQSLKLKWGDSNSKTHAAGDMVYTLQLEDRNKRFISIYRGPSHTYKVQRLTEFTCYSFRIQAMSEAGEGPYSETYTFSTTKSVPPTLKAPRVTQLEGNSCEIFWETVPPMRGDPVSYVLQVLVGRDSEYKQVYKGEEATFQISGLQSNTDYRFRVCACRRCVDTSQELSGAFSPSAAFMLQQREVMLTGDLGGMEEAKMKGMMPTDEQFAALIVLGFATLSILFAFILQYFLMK
Chain of His-tag adipsin (R&D Systems, Cat. # AF1824-SP) (P00746 26-253): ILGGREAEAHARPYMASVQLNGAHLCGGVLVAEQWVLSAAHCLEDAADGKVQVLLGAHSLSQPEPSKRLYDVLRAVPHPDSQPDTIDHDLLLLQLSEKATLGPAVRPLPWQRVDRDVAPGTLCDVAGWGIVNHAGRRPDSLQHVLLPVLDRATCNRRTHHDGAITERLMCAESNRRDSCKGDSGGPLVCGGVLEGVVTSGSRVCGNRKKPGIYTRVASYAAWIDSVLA
Chain of Protocadherin alpha-4 (Pcdha4) of MLO-Y4 cells (mouse) (O88689 other isoform, or with tags, fused parts or gaps): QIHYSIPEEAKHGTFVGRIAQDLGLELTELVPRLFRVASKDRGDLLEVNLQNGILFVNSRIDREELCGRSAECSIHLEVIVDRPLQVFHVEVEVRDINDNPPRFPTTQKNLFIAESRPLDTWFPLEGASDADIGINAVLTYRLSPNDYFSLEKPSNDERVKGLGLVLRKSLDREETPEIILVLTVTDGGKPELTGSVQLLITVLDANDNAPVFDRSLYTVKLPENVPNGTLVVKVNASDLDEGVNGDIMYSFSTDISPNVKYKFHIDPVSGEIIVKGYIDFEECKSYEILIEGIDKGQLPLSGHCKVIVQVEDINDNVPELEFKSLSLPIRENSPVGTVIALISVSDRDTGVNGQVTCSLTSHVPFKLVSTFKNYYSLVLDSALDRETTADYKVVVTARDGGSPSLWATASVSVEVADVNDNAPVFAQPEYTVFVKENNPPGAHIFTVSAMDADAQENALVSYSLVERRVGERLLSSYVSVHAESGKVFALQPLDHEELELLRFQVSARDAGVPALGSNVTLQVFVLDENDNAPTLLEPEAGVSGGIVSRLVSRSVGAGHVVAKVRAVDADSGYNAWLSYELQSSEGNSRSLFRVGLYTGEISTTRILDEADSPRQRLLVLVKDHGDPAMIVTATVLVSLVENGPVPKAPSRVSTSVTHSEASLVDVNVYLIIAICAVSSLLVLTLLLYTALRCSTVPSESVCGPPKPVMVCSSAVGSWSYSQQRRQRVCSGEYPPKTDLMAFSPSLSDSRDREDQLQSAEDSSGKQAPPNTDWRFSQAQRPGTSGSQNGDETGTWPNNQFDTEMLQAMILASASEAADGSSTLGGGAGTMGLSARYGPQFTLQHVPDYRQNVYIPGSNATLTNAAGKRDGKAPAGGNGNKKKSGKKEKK
Chain of Integrin beta-1 (Itgb1) of MLO-Y4 cells (mouse) (P09055 21-798): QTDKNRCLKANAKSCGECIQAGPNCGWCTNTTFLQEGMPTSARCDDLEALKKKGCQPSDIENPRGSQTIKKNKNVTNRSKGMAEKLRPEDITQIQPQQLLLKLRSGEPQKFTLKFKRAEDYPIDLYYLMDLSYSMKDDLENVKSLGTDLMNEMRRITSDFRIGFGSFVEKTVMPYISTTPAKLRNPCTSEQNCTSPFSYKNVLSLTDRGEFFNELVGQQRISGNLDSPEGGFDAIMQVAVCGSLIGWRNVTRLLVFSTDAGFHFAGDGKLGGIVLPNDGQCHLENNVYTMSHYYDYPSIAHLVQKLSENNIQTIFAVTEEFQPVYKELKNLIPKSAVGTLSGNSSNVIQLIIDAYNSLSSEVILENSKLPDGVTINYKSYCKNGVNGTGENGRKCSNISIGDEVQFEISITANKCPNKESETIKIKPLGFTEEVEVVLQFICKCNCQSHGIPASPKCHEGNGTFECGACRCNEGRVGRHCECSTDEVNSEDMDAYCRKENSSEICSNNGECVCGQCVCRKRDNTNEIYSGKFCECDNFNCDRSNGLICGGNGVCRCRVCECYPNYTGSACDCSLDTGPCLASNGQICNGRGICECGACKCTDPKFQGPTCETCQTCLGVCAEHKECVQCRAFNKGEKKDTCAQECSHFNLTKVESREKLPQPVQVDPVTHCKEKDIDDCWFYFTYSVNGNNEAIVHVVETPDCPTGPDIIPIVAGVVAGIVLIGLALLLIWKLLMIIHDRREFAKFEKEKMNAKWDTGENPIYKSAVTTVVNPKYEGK

| summed signal-to-noise value for TMT channel [1] | summed signal-to-noise value for TMT channel [2] | summed signal-to-noise value for TMT channel [3] | summed signal-to-noise value for TMT channel [4] | summed signal-to-noise value for TMT channel [5] | summed signal-to-noise value for TMT channel [6] | summed signal-to-noise value for TMT channel [7] | summed signal-to-noise value for TMT channel [8] | summed signal-to-noise value for TMT channel [9] | summed signal-to-noise value for TMT channel [10] | summed signal-to-noise value for TMT channel [11] | irsin/adipsin (TMT ratio) [12] | irsin/adipsin (TMT ratio) [13] | irsin/adipsin (TMT ratio) [14] | irsin/adipsin (TMT ratio) [15] | Substance |
| --- | --- | --- | --- | --- | --- | --- | --- | --- | --- | --- | --- | --- | --- | --- | --- |
| 105 | 449 | 54.4 | 250 | 148 | 17.4 | 17.1 | – | – | – | – | – | – | – | – | His-tag adipsin (R&D Systems, Cat. # AF1824-SP) |
| – | – | – | – | – | – | – | 427 | 1290 | 51.2 | 75.2 | 4.05 | 2.88 | 2.94 | 4.39 | His-tag recombinant irisin (irisin (human/mouse) with a C-terminal 10 his tag, produced in HEK293 cells) (from UniProt Q8K3V5 60-171) (ligand) |
